Patent US20230416396A1 (Regeneron, published 2023)

Assays:
[1] = target: T1, human 4-1BB on cells (human, UniProt Q07011 24-255); assay: cell-based or functional assay
[2] = target: T1, human 4-1BB on cells; assay: cell-based or functional assay; remark: listed apart in the source
[3] = target: T1, human 4-1BB on cells; assay: cell-based or functional assay; remark: listed apart in the source
[4] = target: T1, human 4-1BB on cells; assay: cell-based or functional assay; remark: listed apart in the source
[5] = target: T1, human 4-1BB on cells; assay: cell-based or functional assay; remark: listed apart in the source
[6] = target: T1, human 4-1BB on cells; assay: flow cytometry on HEK293/h4-1BB cells, APC anti-human secondary
Description: (§1) The ability of the multispecific antigen binding molecules to bind cells was assessed using flow cytometry. Cell lines were chosen to determine the ability of both the anti-CD38 and anti-4-1BB arms to bind their targets. […] Binding was detected by using a labeled secondary antibody and measuring fluorescence on a flow cytometer.
HEK293 and HEK293/4-1BB cells were lifted with trypsin, washed and resuspended in stain buffer (2% FBS in PBS) and added to wells of a 96 well V-bottom plate (3×10⁵ cells/well). A 1:5, 9-point, dose titration of test antibodies was diluted in stain buffer and added to cells to a final concentration ranging from 1.3 pM to 100 nM (a “no antibody” control was included as the ninth point ([…]) labeled as “secondary only”). Cells and antibodies were incubated for 30 min on ice and then washed in stain buffer. Cells were resuspended in 2 ug/ml allophycocyanin (APC) conjugated goat-anti human secondary antibody and incubated for 30 min on ice. Cells were then washed and resuspended in viability dye (according to the manufacturer's protocol) and incubated for 30 min on ice. Cells were then washed with stain buffer and resuspended in 2% PFA for 30 min on ice. After washing, cells were filtered and analyzed by flow cytometry to determine the geometric mean fluorescence intensity (gMFI), which was subsequently plotted using GraphPad Prism software. EC₅₀ values of the antibodies were determined from a 4-parameter logistic equation over a 9-point dose response curve (including secondary only control).

[7] = target: T2, human CD38 endogenously expressed on MOLP8 cells (human, UniProt P28907 1-300); assay: flow cytometry on MOLP8 cells (endogenous hCD38), APC anti-human secondary
T2 construct: whole, on cells; also called hCD38
Description: as §1
HEK293 cells were lifted with trypsin, washed and resuspend in stain buffer (2% FBS in PBS). MOLP8 cells were washed and resuspended in stain buffer. Cells were added to wells of a 96 well V-bottom plate (3×10⁵ cells/well). A 1:4, 9-point, dose titration of test antibodies was diluted in stain buffer and added to cells to a final concentration ranging from 610 fM to 10 nM (a “no antibody” control was included as the ninth point (153fM), labeled as “secondary only”). Cells and antibodies were incubated for 30 min on ice and then washed in stain buffer. Cells were resuspended in 2 ug/ml allophycocyanin (APC) conjugated goat-anti human secondary antibody and incubated for 30 min on ice. Cells were then washed and resuspended in viability dye (according to the manufacturer's protocol) and incubated for 30 min on ice. Cells were then washed with stain buffer and resuspended in 2% PFA for 30 min on ice. After washing, cells were filtered and analyzed by flow cytometry to determine the geometric mean fluorescence intensity (gMFI), which was subsequently plotted using GraphPad Prism software. EC₅₀ values of the antibodies were determined from a 4-parameter logistic equation over a 9-point dose response curve (including secondary only control, representing the ninth point).

[8] = target: T3, human 4-1BB expressed with a C-terminal myc-myc-hexahistidine tag (human, UniProt Q07011 24-186); assay: SPR Biacore 8k, antibody captured by anti-human Fc, h4-1BB.mmH as analyte, 25 C
T3 construct: also called h4-1BB.mmH; REGN3584; not shown: C-terminal myc-myc-hexahistidine tag
Description: (§2) Equilibrium dissociation constants (KD values) for human 4-1BB expressed with a C-terminal myc-myc-hexahistidine tag (h4-1BB.mmH, REGN3584) or human 4-1BB expressed with a C-terminal murine Fc tag (h4-1BB.mFc, REGN3585) binding to purified anti-CD38×4-1BB 1+2 antibodies were determined using a real-time surface plasmon resonance biosensor using a Biacore 8k instrument. The CM5 Biacore sensor surface was derivatized by amine coupling with a monoclonal mouse anti-human Fc antibody (REGN2567). All Biacore binding studies were performed in a buffer composed of 0.01M HEPES pH 7.4, 0.15M NaCl, 3 mM EDTA, 0.05% v/v Surfactant P20 (HBS-EP running buffer). […] Antibody-reagent association was monitored for 5 minutes while dissociation in HBS-EP running buffer was monitored for 10 minutes. At the end of each cycle, the anti-CD38×4-1BB 1+2 antibody capture surface was regenerated using a 10 second injection of 20 mM phosphoric acid. All binding kinetics experiments were performed at 25° C.
(§3) Kinetic association (kₐ) and dissociation (kd) rate constants were determined by fitting the real-time sensorgrams to a 1:1 binding model using Cytiva Insight curve fitting software. Binding dissociation equilibrium constants (KD) and dissociative half-lives (t/2) were calculated from the kinetic rate constants as: […]

[9] = target: T4, human 4-1BB expressed with a C-terminal murine Fc tag (human, UniProt Q07011 24-186); assay: SPR Biacore 8k, antibody captured by anti-human Fc, h4-1BB.mFc as analyte, 25 C
T4 construct: also called h4-1BB.mFc; REGN3585; not shown: C-terminal murine Fc tag
Description: as §2, §3

T1 sequence (Q07011 24-255): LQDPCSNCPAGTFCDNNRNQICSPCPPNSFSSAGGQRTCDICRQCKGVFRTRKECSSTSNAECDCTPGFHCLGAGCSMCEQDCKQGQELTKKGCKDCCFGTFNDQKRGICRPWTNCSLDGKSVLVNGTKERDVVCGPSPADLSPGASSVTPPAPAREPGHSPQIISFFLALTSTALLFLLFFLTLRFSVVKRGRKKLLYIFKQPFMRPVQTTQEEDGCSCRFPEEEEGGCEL
T3 sequence (Q07011 24-186 limits assumed): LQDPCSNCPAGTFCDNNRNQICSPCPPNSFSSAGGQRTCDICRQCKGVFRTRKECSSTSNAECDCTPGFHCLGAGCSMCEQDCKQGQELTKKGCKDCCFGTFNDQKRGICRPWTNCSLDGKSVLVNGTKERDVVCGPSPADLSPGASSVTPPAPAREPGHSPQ
T4 sequence (Q07011 24-186 limits assumed): as above

B1: REGN7647 (bispecific antibody, human IgG4 S228P, kappa)
heavy 1: EVQLVESGGGLVQPGRSLRLSCGASGFTFDDYVMHWVRQIPGKGLEWVAGISWNSGSIGYADSVKGRFTISRDNAKNSLYLQMNSLRAEDTALYFCAKDHIDPYSSSLYYYYGMDVWGQGTTVTVSSASTKGPSVFPLAPCSRSTSESTAALGCLVKDYFPEPVTVSWNSGALTSGVHTFPAVLQSSGLYSLSSVVTVPSSSLGTKTYTCNVDHKPSNTKVDKRVESKYGPPGGGGSGGGGSGGGGSEVQLVESGGGLVQPGRSLRLSCGASGFTFDDYVMHWVRQIPGKGLEWVAGISWNSGSIGYADSVKGRFTISRDNAKNSLYLQMNSLRAEDTALYFCAKDHIDPYSSSLYYYYGMDVWGQGTTVTVSSASTKGPSVFPLAPCSRSTSESTAALGCLVKDYFPEPVTVSWNSGALTSGVHTFPAVLQSSGLYSLSSVVTVPSSSLGTKTYTCNVDHKPSNTKVDKRVESKYGPPCPPCPAPPVAGPSVFLFPPKPKDTLMISRTPEVTCVVVDVSQEDPEVQFNWYVDGVEVHNAKTKPREEQFNSTYRVVSVLTVLHQDWLNGKEYKCKVSNKGLPSSIEKTISKAKGQPREPQVYTLPPSQEEMTKNQVSLTCLVKGFYPSDIAVEWESNGQPENNYKTTPPVLDSDGSFFLYSRLTVDKSRWQEGNVFSCSVMHEALHNRFTQKSLSLSPGK
heavy 2: EVQLVESGGGLVQPGRSLRLSCAASGFTFDDYAMHWVRQAPGKGLEWVSGISWKSDNIGYADSVKGRFTISRDNAKNSLYLQMNSLRAEDTALYYCAKALGGWKFDYYYGMDVWGQGTTVTVSSASTKGPSVFPLAPCSRSTSESTAALGCLVKDYFPEPVTVSWNSGALTSGVHTFPAVLQSSGLYSLSSVVTVPSSSLGTKTYTCNVDHKPSNTKVDKRVESKYGPPCPPCPAPPVAGPSVFLFPPKPKDTLMISRTPEVTCVVVDVSQEDPEVQFNWYVDGVEVHNAKTKPREEQFNSTYRVVSVLTVLHQDWLNGKEYKCKVSNKGLPSSIEKTISKAKGQPREPQVYTLPPSQEEMTKNQVSLTCLVKGFYPSDIAVEWESNGQPENNYKTTPPVLDSDGSFFLYSRLTVDKSRWQEGNVFSCSVMHEALHNHYTQKSLSLSLGK
light: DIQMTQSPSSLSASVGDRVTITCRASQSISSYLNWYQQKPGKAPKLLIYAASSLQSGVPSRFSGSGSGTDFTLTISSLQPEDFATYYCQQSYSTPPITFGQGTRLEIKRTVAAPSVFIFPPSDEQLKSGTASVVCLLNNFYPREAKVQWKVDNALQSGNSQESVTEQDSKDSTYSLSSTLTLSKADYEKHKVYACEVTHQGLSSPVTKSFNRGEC
notes: 1+2 format, hIgG4P-PVA; The linker between the two 4-1BB Fabs is (G4S)3v15; also called CD38x4-1BB (1 + 2), (G4S)3v15; 26812P2 x 35333P2 (IN) + 35333P2 (OUT)
EC50 of IL-2 release, T cells + HEK293/CD20/CD38 + REGN1979 [1]: 0.0058 nM
EC50 of IL-2 release, T cells + MOLP-8 + IsoC [1]: 0.00221 nM
EC50 of IL-2 release, T cells + MOLP-8 + REGN5458 [1]: 0.0231 nM
MAX IL-2 release, T cells + HEK293/CD20 + REGN1979 [1]: 199 pg/mL
MAX IL-2 release, T cells + HEK293/CD20/CD38 + IsoC [1]: 18 pg/mL
MAX IL-2 release, T cells + HEK293/CD20/CD38 + REGN1979 [1]: 2850 pg/mL
MAX IL-2 release, T cells + MOLP-8 + IsoC [1]: 331 pg/mL
MAX IL-2 release, T cells + MOLP-8 + REGN5458 [1]: 692 pg/mL
EC50 of IFNγ release, T cells + HEK293/CD20/CD38 + REGN2281 [2]: 0.0617 nM
EC50 of IFNγ release, T cells + MOLP-8 + REGN5458 [2]: 0.0707 nM
EC50 of IFNγ release, T cells + NALM-6 [2]: 0.0703 nM
MAX IFNγ release, T cells + HEK293/CD20 + REGN2281 [2]: 1910 pg/mL
MAX IFNγ release, T cells + HEK293/CD20/CD38 + REGN2281 [2]: 6050 pg/mL
MAX IFNγ release, T cells + MOLP-8 + IsoC [2]: 103 pg/mL
MAX IFNγ release, T cells + MOLP-8 + REGN5458 [2]: 3280 pg/mL
MAX IFNγ release, T cells + NALM-6 [2]: 655 pg/mL
EC50 of luciferase activity, HEK293/NFkB-Luc/h4-1BB reporter + OPM2 [3]: 0.00735 nM
MAX luciferase activity, HEK293/NFkB-Luc/h4-1BB reporter + HEK293/CD20 [3]: 1.2e+06 RLU
MAX luciferase activity, HEK293/NFkB-Luc/h4-1BB reporter + HEK293/CD20/CD38 [3]: 2.4e+06 RLU
MAX luciferase activity, HEK293/NFkB-Luc/h4-1BB reporter + MOLP-8 [3]: 2.3e+06 RLU
MAX luciferase activity, HEK293/NFkB-Luc/h4-1BB reporter + OPM2 [3]: 1.9e+06 RLU
EC50 of IL-2 release, T cells + NALM6 + Cemiplimab [4]: 0.0477 nM
EC50 of IL-2 release, T cells + NALM6 + IgG4P [4]: 0.0579 nM
EC50 of IL-2 release, T cells + NALM6/PD-L1 + Cemiplimab [4]: 0.0911 nM
EC50 of IL-2 release, T cells + NALM6/PD-L1 + IgG4P [4]: 0.117 nM
EC50 of IFNγ release, T cells + NALM-6 + IgG4P [5]: 0.0815 nM
EC50 [6]: 0.608 nM
MAX gMFI [6]: 1.4e+06 gMFI
MAX gMFI [7]: 120000 gMFI
100 nM h4-1BB.mmH Bind (RU) [8]: 86.1 RU
Kd [8]: 16.5 nM
koff [8]: 0.00533 s⁻¹
kon [8]: 324000 M⁻¹ s⁻¹
t½ [8]: 2.2 min
100 nM h4-1BB.mFc Bind (RU) [9]: 224 RU
Kd [9]: 1.18 nM
koff [9]: 0.000231 s⁻¹
kon [9]: 195000 M⁻¹ s⁻¹
t½ [9]: 50 min
